Laboratory results: US5717058, “Peptide inhibitors of tax-dependent transcription” (Somatogen, Inc.)

Tests used:
CREB = CREB (UniProt P16220 P16220:1-327); test: EMSA; 3.4 nM CREB, 0.5 nM probe, 10 ng poly dIdC, 75 mM KCl, 6.25 mM MgCl2, room temp; reference without Tax; conditions: tags: heparin-agarose purified, prepared per Franklin et al. 1993; chain copies: 2; label: 32P end-label; cloned into pUC19 Bgl II site, 70 bp Kpn I-Hind III fragment used as probe
[1] = molecular target: CREB + Tax (HTLV-I Tax enhances CREB binding) (/ HTLV-I, UniProt P16220;P03409 P16220:1-327,P03409:1-353); test: EMSA; conditions: tags: Tax carries C-terminal His6 (TaxH6); label: 32P end-label; cloned into pUC19 Bgl II site, 70 bp Kpn I-Hind III fragment used as probe
CREB + Tax (HTLV-I Tax enhances CREB binding), sequence (P16220 whole entry, chain 1 of 2, the tested form may be a part): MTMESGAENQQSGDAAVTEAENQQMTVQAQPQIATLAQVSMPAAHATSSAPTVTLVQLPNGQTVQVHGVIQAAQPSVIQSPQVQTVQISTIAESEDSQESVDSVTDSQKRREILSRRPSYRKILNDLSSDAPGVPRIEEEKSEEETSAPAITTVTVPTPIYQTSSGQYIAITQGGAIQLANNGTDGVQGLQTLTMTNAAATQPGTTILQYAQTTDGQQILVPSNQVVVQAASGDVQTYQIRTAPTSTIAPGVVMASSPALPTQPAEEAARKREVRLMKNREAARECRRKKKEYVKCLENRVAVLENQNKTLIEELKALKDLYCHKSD
CREB + Tax (HTLV-I Tax enhances CREB binding), sequence (P03409 whole entry, chain 2 of 2, the tested form may be a part): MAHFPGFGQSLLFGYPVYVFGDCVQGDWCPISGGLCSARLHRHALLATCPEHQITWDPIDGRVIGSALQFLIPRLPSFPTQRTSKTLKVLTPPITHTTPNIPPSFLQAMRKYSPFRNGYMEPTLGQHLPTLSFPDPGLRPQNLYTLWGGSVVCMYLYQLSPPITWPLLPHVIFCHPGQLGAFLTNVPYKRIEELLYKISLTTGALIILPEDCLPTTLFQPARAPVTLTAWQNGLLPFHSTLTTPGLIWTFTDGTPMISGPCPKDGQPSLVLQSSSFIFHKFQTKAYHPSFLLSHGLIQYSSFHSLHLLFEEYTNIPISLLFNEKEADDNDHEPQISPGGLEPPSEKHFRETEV

CREB, sequence (P16220 whole entry, the tested form may be a part, one chain of several): as the sequence (P16220 whole entry, chain 1 of 2, the tested form may be a part) above

B1: HTLV-I third 21 bp repeat (site 3 probe) (dsDNA)
DNA 1: GATCTGGCGTTGACGACAACCCCA
DNA 2: TGGGGTTGTCGTCAACGCCAGATC
B1 was tested. Which binding signal (CREB) did it give?
Its binding signal is 1 fold.

What about the binding signal [1] of the same binder?
The binding signal was 3.9 fold.
